Experiments:
KAE1;BUD32;CGI121;PCC1 = biological target: T1, KAE1;BUD32;CGI121;PCC1 (Arabidopsis thaliana;Arabidopsis …, UniProt O49653;Q94K14;Q6NMZ4;Q8GWD7 1-353;1-226;1-172;1-96, |||); assay: MST; KEOPS dimer; MST: 20 mM PBS pH 7.5, 300 mM NaCl, 0.05% Tween 20, 25 C, 50 nM RNA; EMSA: 20 mM Tris-HCl pH 7.5, 300 mM NaCl, 5 mM b-mercaptoethanol, 20% glycerol, agarose gel in Tris-glycine pH 8.0 (8.5 for FAM-RNA), 4 C; details: protein: recombinant;recombinant;recombinant;recombinant; tags: none (6His on partner PCC1);none (6His on partner CGI121);6His (C-term);6His (C-term); chain copies: 2;2;2;2; label: 5' 6-FAM; tRNA cloverleaf
T1 sequence 1: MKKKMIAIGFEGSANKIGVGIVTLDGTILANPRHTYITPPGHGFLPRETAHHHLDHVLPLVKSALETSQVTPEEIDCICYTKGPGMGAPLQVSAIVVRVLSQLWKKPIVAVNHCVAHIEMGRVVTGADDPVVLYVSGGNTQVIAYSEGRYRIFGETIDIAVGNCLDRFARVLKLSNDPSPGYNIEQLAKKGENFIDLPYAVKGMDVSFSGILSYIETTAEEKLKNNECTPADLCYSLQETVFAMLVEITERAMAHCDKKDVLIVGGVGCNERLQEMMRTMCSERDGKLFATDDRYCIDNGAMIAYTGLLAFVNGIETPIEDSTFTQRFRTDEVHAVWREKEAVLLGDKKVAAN
T1 sequence 2: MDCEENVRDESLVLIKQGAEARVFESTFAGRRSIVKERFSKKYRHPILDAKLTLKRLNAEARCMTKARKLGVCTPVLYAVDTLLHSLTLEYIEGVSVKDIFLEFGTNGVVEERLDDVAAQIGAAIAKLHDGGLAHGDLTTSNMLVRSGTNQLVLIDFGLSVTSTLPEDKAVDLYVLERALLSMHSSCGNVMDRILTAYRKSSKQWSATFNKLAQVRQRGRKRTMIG
T1 sequence 3: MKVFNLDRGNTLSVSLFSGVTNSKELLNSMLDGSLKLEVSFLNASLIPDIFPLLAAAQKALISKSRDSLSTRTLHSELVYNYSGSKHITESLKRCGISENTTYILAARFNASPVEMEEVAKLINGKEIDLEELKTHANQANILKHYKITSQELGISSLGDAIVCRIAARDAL
T1 sequence 4: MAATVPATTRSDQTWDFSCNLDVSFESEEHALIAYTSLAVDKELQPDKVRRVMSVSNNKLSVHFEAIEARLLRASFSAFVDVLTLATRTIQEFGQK

[1] = biological target: T2, KAE1 mutant-2;BUD32;CGI121;PCC1 (Arabidopsis thaliana;Arabidopsis …, UniProt O49653;Q94K14;Q6NMZ4;Q8GWD7 1-353;1-226;1-172;1-96, G43E;F44R;L45K;P46R;R47D;E48K|||); assay: EMSA; conflicts with MST; MST: 20 mM PBS pH 7.5, 300 mM NaCl, 0.05% Tween 20, 25 C, 50 nM RNA; EMSA: 20 mM Tris-HCl pH 7.5, 300 mM NaCl, 5 mM b-mercaptoethanol, 20% glycerol, agarose gel in Tris-glycine pH 8.0 (8.5 for FAM-RNA), 4 C; details: protein: recombinant;recombinant;recombinant;recombinant; tags: ;none (6His on partner CGI121);6His (C-term);6His (C-term); chain copies: 2;2;2;2; label: 5' 6-FAM; tRNA cloverleaf
T2 sequence 1: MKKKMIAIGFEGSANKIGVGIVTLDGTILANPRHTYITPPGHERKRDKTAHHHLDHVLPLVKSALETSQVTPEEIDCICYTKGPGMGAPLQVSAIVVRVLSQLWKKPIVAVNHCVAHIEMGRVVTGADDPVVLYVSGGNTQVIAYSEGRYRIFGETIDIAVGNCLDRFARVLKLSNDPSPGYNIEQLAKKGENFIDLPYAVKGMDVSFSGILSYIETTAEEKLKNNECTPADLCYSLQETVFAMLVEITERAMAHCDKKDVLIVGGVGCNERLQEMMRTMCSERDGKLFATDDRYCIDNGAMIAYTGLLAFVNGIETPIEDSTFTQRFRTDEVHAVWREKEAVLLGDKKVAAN
T2 sequence 2: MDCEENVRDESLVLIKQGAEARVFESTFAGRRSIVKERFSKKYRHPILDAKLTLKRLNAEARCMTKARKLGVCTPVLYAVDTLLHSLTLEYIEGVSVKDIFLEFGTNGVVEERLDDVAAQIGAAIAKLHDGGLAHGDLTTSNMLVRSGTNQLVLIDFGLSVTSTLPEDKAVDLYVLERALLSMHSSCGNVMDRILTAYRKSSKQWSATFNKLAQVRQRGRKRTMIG
T2 sequence 3: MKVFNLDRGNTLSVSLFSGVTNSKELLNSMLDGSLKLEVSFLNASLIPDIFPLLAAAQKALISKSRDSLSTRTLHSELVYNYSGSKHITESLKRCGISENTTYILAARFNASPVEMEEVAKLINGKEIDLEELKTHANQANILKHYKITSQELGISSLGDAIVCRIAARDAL
T2 sequence 4: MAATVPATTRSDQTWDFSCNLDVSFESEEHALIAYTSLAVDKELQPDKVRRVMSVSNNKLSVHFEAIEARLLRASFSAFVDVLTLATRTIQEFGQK

[2] = biological target: T3, KAE1;BUD32 K55E;CGI121;PCC1 (Arabidopsis thaliana;Arabidopsis …, UniProt O49653;Q94K14;Q6NMZ4;Q8GWD7 1-353;1-226;1-172;1-96, |K55E||); assay: MST; MST: 20 mM PBS pH 7.5, 300 mM NaCl, 0.05% Tween 20, 25 C, 50 nM RNA; EMSA: 20 mM Tris-HCl pH 7.5, 300 mM NaCl, 5 mM b-mercaptoethanol, 20% glycerol, agarose gel in Tris-glycine pH 8.0 (8.5 for FAM-RNA), 4 C; details: protein: recombinant;recombinant;recombinant;recombinant; tags: none (6His on partner PCC1);;6His (C-term);6His (C-term); chain copies: 2;2;2;2; label: 5' 6-FAM; tRNA cloverleaf
T3 sequence 1: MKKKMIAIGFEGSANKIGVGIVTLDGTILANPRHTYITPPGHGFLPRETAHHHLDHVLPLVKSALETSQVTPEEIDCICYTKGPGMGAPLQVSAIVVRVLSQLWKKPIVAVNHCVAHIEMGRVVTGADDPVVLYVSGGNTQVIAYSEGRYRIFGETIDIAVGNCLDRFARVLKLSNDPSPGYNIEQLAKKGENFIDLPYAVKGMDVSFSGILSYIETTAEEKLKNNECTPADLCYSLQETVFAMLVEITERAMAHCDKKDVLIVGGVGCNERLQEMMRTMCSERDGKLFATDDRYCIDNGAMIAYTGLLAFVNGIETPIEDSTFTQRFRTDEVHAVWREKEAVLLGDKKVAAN
T3 sequence 2: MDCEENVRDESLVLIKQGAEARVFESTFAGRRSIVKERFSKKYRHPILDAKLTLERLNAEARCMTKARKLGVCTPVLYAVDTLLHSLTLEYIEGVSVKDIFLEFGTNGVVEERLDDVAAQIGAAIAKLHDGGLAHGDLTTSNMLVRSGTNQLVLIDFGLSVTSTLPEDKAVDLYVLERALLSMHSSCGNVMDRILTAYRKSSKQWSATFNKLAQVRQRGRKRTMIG
T3 sequence 3: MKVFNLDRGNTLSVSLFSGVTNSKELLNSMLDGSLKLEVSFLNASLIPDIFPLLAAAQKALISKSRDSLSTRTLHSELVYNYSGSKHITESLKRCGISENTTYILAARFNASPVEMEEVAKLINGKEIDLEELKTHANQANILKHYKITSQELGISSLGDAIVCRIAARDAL
T3 sequence 4: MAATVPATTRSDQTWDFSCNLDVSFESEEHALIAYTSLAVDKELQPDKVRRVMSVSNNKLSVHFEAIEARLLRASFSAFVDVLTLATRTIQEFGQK

[3] = biological target: T4, KAE1;BUD32;CGI121;PCC1 R73D (Arabidopsis thaliana;Arabidopsis …, UniProt O49653;Q94K14;Q6NMZ4;Q8GWD7 1-353;1-226;1-172;1-96, |||R73D); assay: MST; Fig S4 legend gives ~372; MST: 20 mM PBS pH 7.5, 300 mM NaCl, 0.05% Tween 20, 25 C, 50 nM RNA; EMSA: 20 mM Tris-HCl pH 7.5, 300 mM NaCl, 5 mM b-mercaptoethanol, 20% glycerol, agarose gel in Tris-glycine pH 8.0 (8.5 for FAM-RNA), 4 C; details: protein: recombinant;recombinant;recombinant;recombinant; tags: none (6His on partner PCC1);none (6His on partner CGI121);6His (C-term);6His (C-term); chain copies: 2;2;2;2; label: 5' 6-FAM; tRNA cloverleaf
T4 sequence 1: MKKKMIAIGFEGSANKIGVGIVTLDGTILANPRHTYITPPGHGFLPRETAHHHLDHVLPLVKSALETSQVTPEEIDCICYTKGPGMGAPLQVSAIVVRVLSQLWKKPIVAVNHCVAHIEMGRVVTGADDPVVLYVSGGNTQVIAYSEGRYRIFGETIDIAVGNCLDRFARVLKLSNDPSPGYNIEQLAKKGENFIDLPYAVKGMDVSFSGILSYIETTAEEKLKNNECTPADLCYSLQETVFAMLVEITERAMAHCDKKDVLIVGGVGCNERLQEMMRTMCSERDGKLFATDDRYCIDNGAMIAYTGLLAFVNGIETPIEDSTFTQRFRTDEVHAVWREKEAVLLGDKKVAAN
T4 sequence 2: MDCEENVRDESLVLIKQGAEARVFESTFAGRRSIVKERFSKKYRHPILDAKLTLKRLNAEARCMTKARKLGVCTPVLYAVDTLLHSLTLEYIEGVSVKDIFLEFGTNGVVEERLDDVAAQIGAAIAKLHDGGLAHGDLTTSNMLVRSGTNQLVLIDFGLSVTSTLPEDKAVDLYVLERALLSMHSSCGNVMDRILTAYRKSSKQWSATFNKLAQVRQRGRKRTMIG
T4 sequence 3: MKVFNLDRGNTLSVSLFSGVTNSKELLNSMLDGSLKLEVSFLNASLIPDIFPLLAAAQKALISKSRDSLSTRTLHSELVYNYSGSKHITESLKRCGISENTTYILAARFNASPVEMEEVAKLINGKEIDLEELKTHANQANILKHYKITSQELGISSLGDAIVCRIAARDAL
T4 sequence 4: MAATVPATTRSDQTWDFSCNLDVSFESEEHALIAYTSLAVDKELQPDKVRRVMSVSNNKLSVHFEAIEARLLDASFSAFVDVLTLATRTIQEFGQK

B1: 5'-6FAM-tRNAArgCCU (structured_RNA)
RNA: GCGCCUGUAGCUCAGUGGAUAGAGCGUCUGUUUCCUAAGCAGAAGGUCGUAGGUUCGACCCCUACCUGGCGCGCCA
How did the Kd (KAE1;BUD32;CGI121;PCC1) turn out when B1 was run?
The Kd was 18.1 ± 3.87 µM.

Does B1 bind [1]?
Result: binds

What about the Kd [2] of the same binder?
The Kd was 104 ± 15.2 µM.

And the Kd [3]?
Its Kd is 353 ± 40 µM.

— article PMC11077089, “Molecular basis of A. thaliana KEOPS complex in biosynthesizing tRNA t6A”
